Measured values reported in patent publication US20230407373A1 (priority 2020, published 2023).
Where two headings read alike, the source gives them in different places.

B1: BAZ1B (protein, UniProt Q9UIG0 1-1483, looked up)
Tyrosine-protein kinase BAZ1B: MAPLLGRKPFPLVKPLPGEEPLFTIPHTQEAFRTREEYEARLERYSERIWTCKSTGSSQLTHKEAWEEEQEVAELLKEEFPAWYEKLVLEMVHHNTASLEKLVDTAWLEIMTKYAVGEECDFEVGKEKMLKVKIVKIHPLEKVDEEATEKKSDGACDSPSSDKENSSQIAQDHQKKETVVKEDEGRRESINDRARRSPRKLPTSLKKGERKWAPPKFLPHKYDVKLQNEDKIISNVPADSLIRTERPPNKEIVRYFIRHNALRAGTGENAPWVVEDELVKKYSLPSKFSDFLLDPYKYMTLNPSTKRKNTGSPDRKPSKKSKTDNSSLSSPLNPKLWCHVHLKKSLSGSPLKVKNSKNSKSPEEHLEEMMKMMSPNKLHTNFHIPKKGPPAKKPGKHSDKPLKAKGRSKGILNGQKSTGNSKSPKKGLKTPKTKMKQMTLLDMAKGTQKMTRAPRNSGGTPRTSSKPHKHLPPAALHLIAYYKENKDREDKRSALSCVISKTARLLSSEDRARLPEELRSLVQKRYELLEHKKRWASMSEEQRKEYLKKKREELKKKLKEKAKERREKEMLERLEKQKRYEDQELTGKNLPAFRLVDTPEGLPNTLFGDVAMVVEFLSCYSGLLLPDAQYPITAVSLMEALSADKGGFLYLNRVLVILLQTLLQDEIAEDYGELGMKLSEIPLTLHSVSELVRLCLRRSDVQEESEGSDTDDNKDSAAFEDNEVQDEFLEKLETSEFFELTSEEKLQILTALCHRILMTYSVQDHMETRQQMSAELWKERLAVLKEENDKKRAEKQKRKEMEAKNKENGKVENGLGKTDRKKEIVKFEPQVDTEAEDMISAVKSRRLLAIQAKKEREIQEREMKVKLERQAEEERIRKHKAAAEKAFQEGIAKAKLVMRRTPIGTDRNHNRYWLFSDEVPGLFIEKGWVHDSIDYRFNHHCKDHTVSGDEDYCPRSKKANLGKNASMNTQHGTATEVAVETTTPKQGQNLWFLCDSQKELDELLNCLHPQGIRESQLKERLEKRYQDIIHSIHLARKPNLGLKSCDGNQELLNFLRSDLIEVATRLQKGGLGYVEETSEFEARVISLEKLKDFGECVIALQASVIKKFLQGFMAPKQKRRKLQSEDSAKTEEVDEEKKMVEEAKVASALEKWKTAIREAQTFSRMHVLLGMLDACIKWDMSAENARCKVCRKKGEDDKLILCDECNKAFHLFCLRPALYEVPDGEWQCPACQPATARRNSRGRNYTEESASEDSEDDESDEEEEEEEEEEEEEDYEVAGLRLRPRKTIRGKHSVIPPAARSGRRPGKKPHSTRRSQPKAPPVDDAEVDELVLQTKRSSRRQSLELQKCEEILHKIVKYRFSWPFREPVTRDEAEDYYDVITHPMDFQTVQNKCSCGSYRSVQEFLTDMKQVFTNAEVYNCRGSHVLSCMVKTEQCLVALLHKHLPGHPYVRRKRKKFPDRLAEDEGDSEPEAVGQSRGRRQKK
B2: DHX8 (protein, UniProt Q14562 1-1220, looked up)
ATP-dependent RNA helicase …: MAVAVAMAGALIGSEPGPAEELAKLEYLSLVSKVCTELDNHLGINDKDLAEFVISLAEKNTTFDTFKASLVKNGAEFTDSLISNLLRLIQTMRPPAKPSTSKDPVVKPKTEKEKLKELFPVLCQPDNPSVRTMLDEDDVKVAVDVLKELEALMPSAAGQEKQRDAEHRDRTKKKKRSRSRDRNRDRDRDRERNRDRDHKRRHRSRSRSRSRTRERNKVKSRYRSRSRSQSPPKDRKDRDKYGERNLDRWRDKHVDRPPPEEPTIGDIYNGKVTSIMQFGCFVQLEGLRKRWEGLVHISELRREGRVANVADVVSKGQRVKVKVLSFTGTKTSLSMKDVDQETGEDLNPNRRRNLVGETNEETSMRNPDRPTHLSLVSAPEVEDDSLERKRLTRISDPEKWEIKQMIAANVLSKEEFPDFDEETGILPKVDDEEDEDLEIELVEEEPPFLRGHTKQSMDMSPIKIVKNPDGSLSQAAMMQSALAKERRELKQAQREAEMDSIPMGLNKHWVDPLPDAEGRQIAANMRGIGMMPNDIPEWKKHAFGGNKASYGKKTQMSILEQRESLPIYKLKEQLVQAVHDNQILIVIGETGSGKTTQITQYLAEAGYTSRGKIGCTQPRRVAAMSVAKRVSEEFGCCLGQEVGYTIRFEDCTSPETVIKYMTDGMLLRECLIDPDLTQYAIIMLDEAHERTIHTDVLFGLLKKTVQKRQDMKLIVTSATLDAVKFSQYFYEAPIFTIPGRTYPVEILYTKEPETDYLDASLITVMQIHLTEPPGDILVFLTGQEEIDTACEILYERMKSLGPDVPELIILPVYSALPSEMQTRIFDPAPPGSRKVVIATNIAETSLTIDGIYYVVDPGFVKQKVYNSKTGIDQLVVTPISQAQAKQRAGRAGRTGPGKCYRLYTERAYRDEMLTTNVPEIQRTNLASTVLSLKAMGINDLLSFDFMDAPPMETLITAMEQLYTLGALDDEGLLTRLGRRMAEFPLEPMLCKMLIMSVHLGCSEEMLTIVSMLSVQNVFYRPKDKQALADQKKAKFHQTEGDHLTLLAVYNSWKNNKFSNPWCYENFIQARSLRRAQDIRKQMLGIMDRHKLDVVSCGKSTVRVQKAICSGFFRNAAKKDPQEGYRTLIDQQVVYIHPSSALFNRQPEWVVYHELVLTTKEYMREVTTIDPRWLVEFAPAFFKVSDPTKLSKQKKQQRLEPLYNRYEEPNAWRISRAFRRR
B3: PKP1 (protein, UniProt Q13835 1-747, looked up)
Plakophilin-1: MNHSPLKTALAYECFQDQDNSTLALPSDQKMKTGTSGRQRVQEQVMMTVKRQKSKSSQSSTLSHSNRGSMYDGLADNYNYGTTSRSSYYSKFQAGNGSWGYPIYNGTLKREPDNRRFSSYSQMENWSRHYPRGSCNTTGAGSDICFMQKIKASRSEPDLYCDPRGTLRKGTLGSKGQKTTQNRYSFYSTCSGQKAIKKCPVRPPSCASKQDPVYIPPISCNKDLSFGHSRASSKICSEDIECSGLTIPKAVQYLSSQDEKYQAIGAYYIQHTCFQDESAKQQVYQLGGICKLVDLLRSPNQNVQQAAAGALRNLVFRSTTNKLETRRQNGIREAVSLLRRTGNAEIQKQLTGLLWNLSSTDELKEELIADALPVLADRVIIPFSGWCDGNSNMSREVVDPEVFFNATGCLRKRLGMRELLALVPQRATSSRVNLSSADAGRQTMRNYSGLIDSLMAYVQNCVAASRCDDKSVENCMCVLHNLSYRLDAEVPTRYRQLEYNARNAYTEKSSTGCFSNKSDKMMNNNYDCPLPEEETNPKGSGWLYHSDAIRTYLNLMGKSKKDATLEACAGALQNLTASKGLMSSGMSQLIGLKEKGLPQIARLLQSGNSDVVRSGASLLSNMSRHPLLHRVMGNQVFPEVTRLLTSHTGNTSNSEDILSSACYTVRNLMASQPQLAKQYFSSSMLNNIINLCRSSASPKAAEAARLLLSDMWSSKELQGVLRQQGFDRNMLGTLAGANSLRNFTSRF
B4: HNRNPA261 (protein, UniProt P22626 1-353, looked up)
Heterogeneous nuclear …: MEKTLETVPLERKKREKEQFRKLFIGGLSFETTEESLRNYYEQWGKLTDCVVMRDPASKRSRGFGFVTFSSMAEVDAAMAARPHSIDGRVVEPKRAVAREESGKPGAHVTVKKLFVGGIKEDTEEHHLRDYFEEYGKIDTIEIITDRQSGKKRGFGFVTFDDHDPVDKIVLQKYHTINGHNAEVRKALSRQEMQEVQSSRSGRGGNFGFGDSRGGGGNFGPGPGSNFRGGSDGYGSGRGFGDGYNGYGGGPGGGNFGGSPGYGGGRGGYGGGGPGYGNQGGGYGGGYDNYGGGNYGSGNYNDFGNYNQQPSNYGPMKSGNFGGSRNMGGPYGGGNYGPGGSGGSGGYGGRSRY

Test system: HCoV-OC43 gRNA and sgRNA
Format: binding
Details: tested against no-probe control, FDR<10%

| Molecule | target (unweighted spectral count, OC43 Probe II capture) (24 hpi, type n_24_v) | target (unweighted spectral count, OC43 Probe II capture) (36 hpi, type n_36_v) |
| --- | --- | --- |
| B1 | 4 | – |
| B2 | – | 27 |
| B3 | 4 | – |
| B4 | – | 70 |
